We go through 3 substances from patent US6376240.

For data set [1], the system named is recombinant His6-RFLAT-1 (C-terminal portion of RFLAT-1, amino acids 59-288).
Data set [2] addresses RFLAT-1 full length (homo sapien) (UniProt Q9Y2Y9). Nature of the data set: cell_activity. Conditions: Jurkat T cells.

Sequence of RFLAT-1 full length (homo sapien) (Q9Y2Y9 other isoform, or with tags, fused parts or gaps): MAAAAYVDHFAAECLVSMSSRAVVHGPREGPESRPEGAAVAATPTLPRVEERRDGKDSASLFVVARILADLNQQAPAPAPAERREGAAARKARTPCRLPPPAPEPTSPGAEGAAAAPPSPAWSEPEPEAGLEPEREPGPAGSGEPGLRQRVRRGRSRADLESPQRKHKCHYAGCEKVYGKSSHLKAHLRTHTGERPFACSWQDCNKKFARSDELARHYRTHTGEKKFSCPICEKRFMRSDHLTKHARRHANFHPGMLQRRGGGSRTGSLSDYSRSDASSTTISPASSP
Sequence of recombinant His6-RFLAT-1 (C-terminal portion of RFLAT-1, amino acids 59-288) (chain, as listed by the source): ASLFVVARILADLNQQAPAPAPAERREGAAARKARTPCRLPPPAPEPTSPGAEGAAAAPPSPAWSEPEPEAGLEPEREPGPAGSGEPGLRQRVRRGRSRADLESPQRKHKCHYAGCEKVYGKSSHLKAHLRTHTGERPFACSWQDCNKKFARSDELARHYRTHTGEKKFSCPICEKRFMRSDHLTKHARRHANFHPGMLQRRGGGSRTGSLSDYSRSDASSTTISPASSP

As for NILK, in data set [1], the “phosphorylation of recombinant RFLAT-1 by immunoprecipitated kinase” value is “the immunoprecipitated NILK from activated PBLs phosphorylates recombinant RFLAT-1”.
RANTES promoter pGL2-R-luciferase showed an activity (fold induction) in data set [2] (about 5 fold in NIH3T3) of 10.
In data set [2] (similar degree of induction), three A/B sites luciferase reporter gave an activity (fold induction) of 10.
